The series is described as follows: yeast display, Sf9 membrane polyspecificity reagent, FACS + sequencing; frameworks hold sequencing errors. The gist of the method: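 A nanobody's polyreactivity label depends on the gate it was sorted from. Yeast display cells were stained with 10% biotinylated, detergent-solubilized Sf9 membrane reagent for 1 hour at 4 °C, enriched on streptavidin microbeads and sorted by FACS. The low and high (top ~1%) gates were set on anti-HA fluorescence for expression and streptavidin fluorescence for reagent binding.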
For “QVQLVESGGGLVQAGGSLRLSCAASGRIFVKYAMGWYRQAPGKERELVARITRGGRTNYADSVKGRFTISRDNAKNTVYLQMNSLKPEDTAVYYCNAGWGMRLSWLGNYWGQGTQVTVSS”, the “polyreactivity (PSR sort gate)” value is on record as “high polyreactivity”.

“QVQLVESGGGLVQAGGSLRLSCAASGRIFVKYSMGWYRQAPGKERELVAAISKSGGSTYYADSVKGRFTISRDNAKNTVYLQMNSLKPEDTAVYYCATRSRDQYSVSYRLDYWGQGTQVTVSS”: the “polyreactivity (PSR sort gate)” value is recorded as “low polyreactivity”.

Consider “QVQLVESGGGLVQAGGSLRLSCAASGRIFVLYAMGWYRQAPGKERELVAAITSDGSSTYYADSVKGRFTISRDNAKNTVYLQMISLKPEDNAVYYCNKVQGWARYRSGKDMGYWGQGTQVTVSS”, for which the “polyreactivity (PSR sort gate)” value is given as “low polyreactivity”.

For “QVQLVESGGGLVQAGGSLRLSCAASGRIFVLYAMGWYRQAPGKERELVADITFDGGSTYYADSVKGRFTISRDNAKNTVYLQMNSLKPEDTAVSFCAARYRWSRKRYNDYDYWGQGTQVSVSS”, the “polyreactivity (PSR sort gate)” value is recorded as “high polyreactivity”.

Consider “QVQLVESGGGLVQAGGSLRLSCAASGRIFVPNAMGWYRPAPGKERELVAAISLRGGSTYYADSVKGRFTISRDNAKYTVYLQMNSLKPEDTAVYYCGWAYRYPHDYWGQGTQVTVSS”, for which the “polyreactivity (PSR sort gate)” value is reported as “high polyreactivity”.

Take “QVQLVESGGGLVQAGGSLRLSCAASGRIFVPNAMGWYRPPPGKERELVAAINWGGGSTYYADSVKGRFTISRDNAKNTVYLQMNSLKPEDTAVYYCAADHPYTIGVLPNQQFDYWGQGTQVTVSS”: the “polyreactivity (PSR sort gate)” value was “low polyreactivity”.

Consider “QVQLVESGGGLVQAGGSLRLSCAASGRIFVPNAMGWYRQAPGKERELVAAISSSGGSTYYADSVKGRFTISRDNAKNTVYLQMNSLKPEDTAVYDCNKVQSTANDYWGQGTQVTVSS”, for which the “polyreactivity (PSR sort gate)” value is “low polyreactivity”.

“QVQLVESGGGLVQAGGSLRLSCAASGRIFVPNPMGWYRQAPGKDRELVAAITNGGRTKYADSVKGRFTISRDNAKNTVYLQMNSLKPEDTAVYYCAADLYRWFYYWGQGTQVTVSS”: the “polyreactivity (PSR sort gate)” value is listed as “high polyreactivity”.

With “QVQLVESGGGLVQAGGSLRLSCAASGRIFVPNTMGWYRQAPGKERELVAAINTGGRTYYADSVKGRFTISRDNAKNTVYLQMNSLKPEDTAVYYCAVFSLKLGYIYDYWGQGTQVTVSS”, the “polyreactivity (PSR sort gate)” value is reported as “high polyreactivity”.

As to “QVQLVESGGGLVQAGGSLRLSCAASGRIFVPYVMGWYRQAPGKERELVASISDSDTSTYYADSVKGRFTISRDNATNTVYLQMNSLKPEDTAVYYCNVDYWGQGTQVTVSS”, the “polyreactivity (PSR sort gate)” value is reported as “low polyreactivity”.

Regarding “QVQLVESGGGLVQAGGSLRLSCAASGRIFVTNAMGWYRQAPGKERELVAAITRGGSTNYADSVKGRFTISRDNAKNTVYLQMNSLKPEDTAVYYCAAKRRYYGPWSRIGYDYWGHGTQVTVSS”, the “polyreactivity (PSR sort gate)” value is given as “low polyreactivity”.

With “QVQLVESGGGLVQAGGSLRLSCAASGRIFVTNDMGWYRQAPGKERELVAAISLSSGSTYYADSVKGRFTISRDNAKNTVYLQMNSLKPEDTAVYYCAADIFPFGYFLFRHGYWGQGTQVTVSS”, the “polyreactivity (PSR sort gate)” value was “low polyreactivity”.

As for “QVQLVESGGGLVQAGGSLRLSCAASGRIFVTYAMGLYRQAPGKERELVAVISWSGGSTYYADSVKGRFTISRDNAKNTVYLQMNSLKPEDTAVYYCARGLRKVRFDYWGQGTQVTVSS”, the “polyreactivity (PSR sort gate)” value is “low polyreactivity”.

Turning to “QVQLVESGGGLVQAGGSLRLSCAASGRIFVTYAMGWYRQAPGKERELVAAITSRGGRTYDADSVKGRFTISRDNAKNTVYLQMNSLKPEDTAVYYCAAYPGPGARYYYWGQGTQVTVSS”, the “polyreactivity (PSR sort gate)” value is given as “high polyreactivity”.

“QVQLVESGGGLVQAGGSLRLSCAASGRIFVTYAMGWYRQAPGKERELVAVISWSGGSTYYADSVKGRITISRDNAKNTVYLQINSLKPEDTAVYYCARGLRKVRFDYWGQGTQVTVSS”: the “polyreactivity (PSR sort gate)” value is reported as “low polyreactivity”.

As to “QVQLVESGGGLVQAGGSLRLSCAASGRIFVVNAMGWYRQAPGKERELVATITRSGGITYYADSVKGRFTISRDNAKNTVYLQMNSLKPEDTAVYYCNADVLFYTYYTRGRFDFDYWGQGTQVTVAS”, the “polyreactivity (PSR sort gate)” value is “low polyreactivity”.

In the case of “QVQLVESGGGLVQAGGSLRLSCAASGRIFVVNDMGWYRQAPGKERELVAAINSGGRTNYADSVKGRFTISRDNAKNTVYLQMNSLKPEDTAVYYCNAKRTGPWFLHVPVYYWGQGTQVTVSS”, the “polyreactivity (PSR sort gate)” value was “low polyreactivity”.

“QVQLVESGGGLVQAGGSLRLSCAASGRIFVWYAMGWYRQATGKERELVAAITRGGSTNYADSVKGRFTISRDNAKNTVYLQMNSLKPEDTAVYYCAARSPYRTRNDYWGQGTQVTVSS”: the “polyreactivity (PSR sort gate)” value is listed as “low polyreactivity”.

For the sequence “QVQLVESGGGLVQAGGSLRLSCAASGRIFVYNAKGWNRQAPGKERQLVAAISYNGGGTYYADSVKGRFTISRDNAKNTVYLQMNSLKPEDTAVYYCAARYRSWTGKYEYWGQGTQVTVSS”, the “polyreactivity (PSR sort gate)” value is on record as “high polyreactivity”.

On to “QVQLVESGGGLVQAGGSLRLSCAASGRIFVYNAKGWYRQAAGKERELVAAISYTGGTTYYADSVKGRFTISRDNAKKTVYLQMKSLKPEDTAVFFCAALWWWNRQVRYEYWGQGTQVTVSS”, for which the “polyreactivity (PSR sort gate)” value is “low polyreactivity”.

Regarding “QVQLVESGGGLVQAGGSLRLSCAASGRIFVYNAMGWSRQAPGKVRELVASITSSGGSTSYADSVKGRFTISRDNAKNTVYLQMNSLKPEDTAVYSCAADVQPDTRSTPEMDYWGQGTQVTVSS”, the “polyreactivity (PSR sort gate)” value was “low polyreactivity”.

Take “QVQLVESGGGLVQAGGSLRLSCAASGRIFVYNAMGWYRQAPGKERELVAAINSGDSTYYADSVKGRFTISRDNAKNTVYLQMNSLKPEDTAVYYCAADIHYYPGYLAYDYWGQGTQVTVSS”: the “polyreactivity (PSR sort gate)” value is reported as “low polyreactivity”.

Regarding “QVQLVESGGGLVQAGGSLRLSCAASGRIFVYNVMGWSRQSPGKERELVAAISWGTGSTYADSVKGRFTISRDNAKNTVYLQMNSLKPEDTAVYYCAADWLSTKNDYWGQGTQVTVSS”, the “polyreactivity (PSR sort gate)” value is listed as “low polyreactivity”.

On to “QVQLVESGGGLVQAGGSLRLSCAASGRIFVYYAMGWYRQAPGKERELVAAITSRDDSTYYADSVKGRFTISRDNAKNTVYLQMNSLKPEDTAVYYCNVVPKSRDWQSYGSWGQGTQVTVSS”, for which the “polyreactivity (PSR sort gate)” value is on record as “high polyreactivity”.

As for “QVQLVESGGGLVQAGGSLRLSCAASGRIFVYYAMGWYRQAPGKERELVATISSGGSTYYADSVKGRFTISRDNAKNTVYLQMNSLKPEDTAVYYCAADNVIRYLAYYYKGDYWGQGTQVTVSS”, the “polyreactivity (PSR sort gate)” value is given as “low polyreactivity”.

Take “QVQLVESGGGLVQAGGSLRLSCAASGRIFVYYAMGWYRQAPGNERELVAAITSGGTTYYADSVKGRFTISRDNAKNTVYLQMNSLKPEDTAVYYCAKVGRSDLGYDYWGQGTQVTVSS”: the “polyreactivity (PSR sort gate)” value was “low polyreactivity”.

Regarding “QVQLVESGGGLVQAGGSLRLSCAASGRIFVYYTMGWYRPAPGKEREFVAAITRSGGRTYYADSVKGRFTISRDNAKNTVYLQMNSLKPEDTAVYYCNRDPTYLAYYIKYDSWGQGTQVTVSS”, the “polyreactivity (PSR sort gate)” value is on record as “high polyreactivity”.

In the case of “QVQLVESGGGLVQAGGSLRLSCAASGRIFWANAMGWYRQAPGKERELVAAISKSGDSTYYADSVKGRFTISRDTAKNTVYLEMSWLKPEDTAVYSCAADEYASRFSFKYDYWGQGTQVTVSS”, the “polyreactivity (PSR sort gate)” value is on record as “high polyreactivity”.

With “QVQLVESGGGLVQAGGSLRLSCAASGRIFWDNAMGWYRQAPGKERELVAAISDSVVITYYADSVKGRFTISRDNAKNTVYLQMNSLKPEDTAVYYCAADKRGTVYLSSFWMDYWGQGTQVTVSW”, the “polyreactivity (PSR sort gate)” value is “low polyreactivity”.

In the case of “QVQLVESGGGLVQAGGSLRLSCAASGRIFWDNAMGWYRQAPGKERELVADITWRSDSTYYADSVKGRFTISRDNAKNTVYLQMNSLKPEATAVYYCAKPINIYPYDYWGQGTQVTVSS”, the “polyreactivity (PSR sort gate)” value is “low polyreactivity”.

For the sequence “QVQLVESGGGLVQAGGSLRLSCAASGRIFWDYALGWYRQAPGKERELVAVITFSGDSTYYADSVKGRFTISRDNAKNTVYVQMNSLKPEDTAVYYCAAARAIRQFWYVATFEYWGQGTQVTVSS”, the “polyreactivity (PSR sort gate)” value is on record as “low polyreactivity”.

On to “QVQLVESGGGLVQAGGSLRLSCAASGRIFWFNSMGWYRQAPGKERELVAAIDSVGSTYYADSVKGRFTISRDNAKNTVYLQMNSLKPEDTAVYYCAKSTRPVSGVPDGPLYEYWGQGTQVTVSS”, for which the “polyreactivity (PSR sort gate)” value was “low polyreactivity”.

As to “QVQLVESGGGLVQAGGSLRLSCAASGRIFWGNGMGWYRQAPGKEREFVAAISKSGGSTYYADSVKGRFTISRDNAKNTVYLQMNSLKPEDTAVYYCAARAPYSYSGYGYWGQGTQVTVSS”, the “polyreactivity (PSR sort gate)” value was “high polyreactivity”.

For the sequence “QVQLVESGGGLVQAGGSLRLSCAASGRIFWGNGMGWYRQAPGKEREFVAAISKSGGSTYYADSVKGRFTISRDNAKNTVYLQMNSLKPEDTAVYYCNARTSRYRRGGDSWGQGTQVTVSS”, the “polyreactivity (PSR sort gate)” value is listed as “high polyreactivity”.

For “QVQLVESGGGLVQAGGSLRLSCAASGRIFWGYAMGWYRQAPGKERELVARITSGGDTYYADSVKGRFTISRDNAKNTVYLQMNSLKPEDTAVYYCAISTAVKPYAYRESGFIYDYWGQGSQVTVSS”, the “polyreactivity (PSR sort gate)” value is listed as “low polyreactivity”.

In the case of “QVQLVESGGGLVQAGGSLRLSCAASGRIFWGYVMGWYRQAPGKERELVAAISSGGDTHYADSVKGRFTISRDNAKKTVYLQMNSLKPEDTAVYYCAARPNFTPYEYGYWGQGTQVTVSS”, the “polyreactivity (PSR sort gate)” value was “low polyreactivity”.

As to “QVQLVESGGGLVQAGGSLRLSCAASGRIFWPNAMGWYRQAPGKERELVAAISYSGGSTYYADSVKGRFTISRDNAKNTVYLQMNSLKPEDTAVYYCAATRSVRISGDGYLGYDYWGQGTQVTVSS”, the “polyreactivity (PSR sort gate)” value is reported as “high polyreactivity”.

With “QVQLVESGGGLVQAGGSLRLSCAASGRIFWQNAKGWYRQAPGKERELVAAISSRGGTTYYADSVKGRFTISRDNAKNTVYLQMNRLKPEDTAVYYCNAALLLRYRGFFTVAAYDYWGQGTQVTVSS”, the “polyreactivity (PSR sort gate)” value is “low polyreactivity”.

Regarding “QVQLVESGGGLVQAGGSLRLSCAASGRIFWSYAMGWYRQAPGKERELVAAITWRTGRTYYADSVKGRFTISRDNAKNTVYLQMNSLKPEDTAVYYCAAEGYLWGQSYNGLNYDSWGQGTQVTVSS”, the “polyreactivity (PSR sort gate)” value was “low polyreactivity”.

With “QVQLVESGGGLVQAGGSLRLSCAASGRIFWTNAMGWYRQAPGKERELVAAISYRGGRTYYADSVKGRFTISRDNAKNTVYLQMNSLKPEDTAVYYCAAFTAQGPKYDYWGQGTQVTVSS”, the “polyreactivity (PSR sort gate)” value is listed as “high polyreactivity”.

As for “QVQLVESGGGLVQAGGSLRLSCAASGRIFWTNAMGWYRQEPGKERELVAAISYNGASTFYADSVKGRFTISLDNAKNTVNLQMNSLKPEDTAVYSCNAYSSRYRYNYWGQGTQVTVSS”, the “polyreactivity (PSR sort gate)” value is recorded as “high polyreactivity”.

The values are drawn from the nanobody polyreactivity screen of Harvey et al. (2022).
